# Measured values reported in patent US8147817B2, “IL-33 in the treatment and diagnosis of diseases and disorders” (The Brigham and Women's Hospital, Inc., priority 2006, dated 2012).
# “Also recorded” adds a separate entry of the source. Like-named read-outs stand apart in the source and are kept apart here.
# T1: mouse ST2 (Mus musculus, UniProt P14719)
# T1 construct: purchased R&D
# T1 sequence (P14719 27-337 isoform P14719-2 limits assumed): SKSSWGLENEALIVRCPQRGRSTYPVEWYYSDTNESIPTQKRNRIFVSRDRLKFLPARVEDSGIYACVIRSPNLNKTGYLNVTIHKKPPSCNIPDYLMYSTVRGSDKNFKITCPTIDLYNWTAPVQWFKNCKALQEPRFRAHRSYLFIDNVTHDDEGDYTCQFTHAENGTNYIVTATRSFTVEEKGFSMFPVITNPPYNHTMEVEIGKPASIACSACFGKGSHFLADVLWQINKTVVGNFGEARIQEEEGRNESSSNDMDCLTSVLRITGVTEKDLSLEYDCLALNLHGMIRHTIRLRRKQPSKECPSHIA
# B1: IL-33: recombinant mature rat IL-33, starting with amino acid 109 of the full-length protein, N-terminal His tag (GenBank BC081993) (protein)
# chain: SIQGTSLLTESCALSTYNDQSVSFVLENGCYVINVEDCGKNQEKDKVLLRYYESSFPAQSGDGVDGKKLMVNMSPIKDTDIWLNANDKDYSVELQKGDVSPPDQAFFVLHKKSSDFVSFECKNLPGTYIGVKDNQLALVEENDESCNNIMFKLSKM
# modifications: left off: small tags and cut ends
# Tests used:
# NF-κB = NF-κB nuclear binding activity by EMSA in cardiomyocytes; assay type: cell-based, rat
# Method: Electromobility shift assays were performed as described previously (8). Cells were lysed for 10 minutes on ice in a solution containing 10 mM HEPES (pH 7.6), 15 mM KCl, 2 mM MgCl2, 0.1 mM ethylenediamine tetraacetic acid (EDTA), 1 mM dithiothreitol (DTT), 0.5 mM phenylmethylsulphonylfluoride (PMSF), 10 μg/mL leupeptin and 0.2% Nonident P-40. Dishes were gently scraped, and nuclei were collected by centrifugation at 800 g for 30 seconds and then suspended in a solution of 50 mM HEPES, 400 mM KCl, 0.1 mM EDTA, 10% glycerol, 1 mM DTT, 0.5 mM PMSF and 10 μg/mL leupeptin. The mixture was incubated on ice for 30 minutes, and the supernatant was collected after centrifugation for 15 minutes at 400 g. Binding reactions were performed with 5 or 10 μg of nuclear protein in 10 mM Tris, 1 mM DTT, 1 mM EDTA, 5% glycerol, 0.1% Triton X-100, 1 mg poly(dIdC), 5 μg bovine serum albumin (BSA) and approximately 10,000 cpm of −32P-labeled oligonucleotide. The binding reactions for AP-1 activity also contained 5 mM MgCl2. Control reaction mixtures contained a 100-fold excess of unlabeled oligonucleotide and were incubated with nuclear extracts of IL-1β-treated cells. DNA complexes were separated on a 4% nondenaturing polyacrylamide gel in Tris-HCl (6.7 mM), EDTA (1 mM) and ammonium acetate (3.3 mM). The oligonucleotides contained the NF-B binding site (sequence: 5′-AGTTGAGGGGACTTTCCCAGGC-3′ (SEQ ID NO: 15)) and were labeled by standard procedures.
# EMSAs were performed as described previously (47). Cells were lysed for 10 minutes on ice in 10 mM HEPES (pH 7.6), 15 mM KCl, 2 mM MgCl2, 0.1 mM EDTA, 1 mM DTT, 0.5 mM PMSF, 10 μg/mL leupeptin, and 0.2% Nonident P-40. Dishes were gently scraped, and nuclei were collected by centrifugation at 800 g for 30 seconds and then suspended in a solution of 50 mM HEPES, 400 mM KCl, 0.1 mM EDTA, 10% glycerol, 1 mM DTT, 0.5 mM PMSF, and 10 μg/mL leupeptin. The mixture was incubated on ice for 30 minutes, and the supernatant was collected after centrifugation for 15 minutes at 400 g. Binding reactions were performed with 5 or 10 μg of nuclear protein in 10 mM Tris, 1 mM DTT, 1 mM EDTA, 5% glycerol, 0.1% Triton X-100, 1 mg poly(dIdC), […] BSA, and 10,000 cpm of [^32P]-labeled oligonucleotide. The specific NF-κB consensus oligonucleotides were 5′-[…]-3′ (SEQ ID NO: 15) and 5′-[…]-3′ (SEQ ID NO: 18) (Promega). Positive and negative control mixtures as well as specific competition mixtures were made as recommended by the manufacturer's instructions, using binding buffer with positive samples, labeled NF-κB oligonucleotides and 10-fold excess of cold NF-κB consensus oligonucleotides for specific competition. DNA complexes were separated on a 6% nondenaturing polyacrylamide gel in Tris-HCl (6.7 mM), EDTA (1 mM), and ammonium acetate (3.3 mM).
# [1] = system: lungs of Sham-operated mice; experiment: Lung histology of Sham-operated mice after IL-33 treatment; assay type: in vivo, mouse; settings: 2 μg/day rat IL-33 for 7 days
# Method: Targeted ST2−/− mice and their WT littermates were employed for the experiments. […] All operative procedures were performed by a single operator with over 20 years rodent cardiac surgery experience who was blinded to genotype and the randomized treatment assignment. Following the procedure, each mouse received daily i.p. injection of recombinant rat IL-33 (2 μg) or vehicle from the day after TAC operation until the day of harvest.
# [2] = system: WT and ST2KO mice after MI; experiment: Experimental myocardial infarction with IL-33 treatment; assay type: in vivo, mouse; settings: recombinant rat IL-33 intraperitoneal daily up to 4 weeks
# Description: 86 mice with wild-type (WT) or ST2 knockout (ST2KO) genotypes were randomized into 4 subgroups, Sham or MI operated, and with or without IL-33 treatment. Experimental myocardial infraction operation was done by permanent occlusion of the left anterior coronary artery via open-chest approach under deep anesthesia. IL-33 treatment was done by a single 2 microgram/kg on each day, intraperitoneal, of recombinant rat IL-33 protein, from the day of operation up to 4 weeks.
# MI was produced on 8-10 week old mice.
# mouse ST2 = target: T1, mouse ST2; experiment: Pull-down assay of recombinant IL-33 with mouse ST2-Fc protein; assay type: binding
# Description: The GenBank™ accession number for rat IL-33 is BC081993. The rat IL-33 cDNA was subcloned into the expression vector pTrcHis-TOPO (Invitrogen), starting with amino acid 109 of the full-length protein with an N-terminal His tag. After sequencing, One-shot TOP10 bacteria (Invitrogen) were transformed and expression was induced with Isopropyl β-D-1-thiogalactopyranoside (Sigma). Four hours after induction, bacteria were harvested, and the pellet was resuspended in B-PER Bacterial Protein Extraction Reagent (Pierce) with EDTA-free protease inhibitor cocktail (Sigma). The lysate was purified with Ni-chelating affinity chromatography using a Ni-NTA Purification system (Invitrogen). Briefly, Ni NTA beads were washed twice after batch binding with 40 ml of 20 mM Imidazole, 300 mM NaCl, 50 mM potassium phosphate, pH 8.0. IL-33 was eluted with 10 ml of 250 mM Imidazole, 300 mM NaCl, 50 mM potassium phosphate, pH 8.0. IL-33 protein was further concentrated, dialyzed and purified by high-performance liquid chromatography (BioLogic DuoFlow System, Bio-Rad, Hercules, Calif.) using HiPrep sephacryl size exclusion column (GE Healthcare Bioscience, Piscataway, N.J.) with buffer containing 150 mM NaCl, 50 mM potassium phosphate, pH 7.2. Endotoxin level (<0.03 EU/μg protein) was determined by Limulus Amebocyte Lysate PYROGENT Ultra (Cambrex) as previously described (12). […]
molecule,measurement,setting,value
B1,reduction of NF-κB nuclear binding activity induced by PDGF-BB or TNF-α,"NF-κB; PDGF-BB (10 ng/ml) or TNF-α (10 ng/ml), IL-33 10 ng/ml",not observed; also recorded: did not block
same,NF-κB activation by agent alone,"NF-κB; cardiomyocytes, angiotensin-II 1 μM, phenylephrine 50 μM, IL-33 10 ng/ml",independently activated NF-κB in both cell types; also recorded: mildly activated NF-κB
same,angiotensin-II- or phenylephrine-induced NF-κB activation,"NF-κB; cardiomyocytes, co-treatment with IL-33 10 ng/ml",markedly attenuated
same,inflammatory changes in lung,[1]; ST2−/− mice,None of these changes were observed; also recorded: These changes were not observed
same,epithelial lining of the airways,[1]; WT mice,remained unchanged
same,infiltration of inflammatory cells in lung,[1]; WT mice,Mild infiltration of inflammatory cells within vessel walls and adjacent to the vessels; also recorded: mild focal infiltrations of inflammatory cells
same,survival after infarction,[2]; ST2KO mice,eliminates this benefit
same,survival after infarction,[2]; WT mice,improves survival after infarction
same,binding to mouse ST2 (pulldown with ST2-Fc chimera protein),mouse ST2,bound to the mouse ST2 protein
same,binding to mouse ST2 (pulldown with ST2-Fc chimera protein),mouse ST2; listed as recombinant IL-33,exhibits specific binding to mouse ST2
